Data on three molecules can be found in paper PMC2776655 (Circulation research, 2009).

Substitutions are numbered along the chain they refer to. In names and notes the source's numbering stands.

Series [1] concerns the molecule itself. Description: SDS-PAGE in non-reducing conditions.
Series [2] concerns the target T1, VEGFR-3 (protein used in isothermal titration calorimetry) (UniProt P35916 25-775).
T1 sequence (looked up): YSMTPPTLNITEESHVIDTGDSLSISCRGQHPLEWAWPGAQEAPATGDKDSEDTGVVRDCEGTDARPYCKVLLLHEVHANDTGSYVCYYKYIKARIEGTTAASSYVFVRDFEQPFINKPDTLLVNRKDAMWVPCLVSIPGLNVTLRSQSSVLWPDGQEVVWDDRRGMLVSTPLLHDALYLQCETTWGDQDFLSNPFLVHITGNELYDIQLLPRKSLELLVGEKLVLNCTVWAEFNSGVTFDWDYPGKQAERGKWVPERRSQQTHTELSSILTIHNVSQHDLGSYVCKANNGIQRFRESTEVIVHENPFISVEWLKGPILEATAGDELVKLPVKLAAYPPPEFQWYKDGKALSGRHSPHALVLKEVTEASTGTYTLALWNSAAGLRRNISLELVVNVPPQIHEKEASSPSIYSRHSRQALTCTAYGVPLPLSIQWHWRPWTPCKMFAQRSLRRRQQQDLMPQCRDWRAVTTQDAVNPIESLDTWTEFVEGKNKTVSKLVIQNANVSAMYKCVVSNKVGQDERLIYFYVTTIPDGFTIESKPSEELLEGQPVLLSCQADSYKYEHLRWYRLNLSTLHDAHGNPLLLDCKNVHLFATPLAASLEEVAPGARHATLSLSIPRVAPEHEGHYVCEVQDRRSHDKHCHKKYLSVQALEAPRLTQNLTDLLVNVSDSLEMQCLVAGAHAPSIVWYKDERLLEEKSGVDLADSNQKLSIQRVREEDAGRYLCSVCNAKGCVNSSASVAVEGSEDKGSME
Briefly: ITC.

Another series addresses VEGFR-2-Ig (UniProt P35968 20-764). Description: ELISA.
The target in the next series is T2, VEGFR-3-Ig (UniProt P35916 25-775).
T2 sequence (looked up): T1 sequence (looked up)
Description: ELISA.

Series [3] deals with the molecule itself. Briefly: SDS-PAGE after treatment with DTT.

VEGFR-2-Ig, sequence (P35968 20-764): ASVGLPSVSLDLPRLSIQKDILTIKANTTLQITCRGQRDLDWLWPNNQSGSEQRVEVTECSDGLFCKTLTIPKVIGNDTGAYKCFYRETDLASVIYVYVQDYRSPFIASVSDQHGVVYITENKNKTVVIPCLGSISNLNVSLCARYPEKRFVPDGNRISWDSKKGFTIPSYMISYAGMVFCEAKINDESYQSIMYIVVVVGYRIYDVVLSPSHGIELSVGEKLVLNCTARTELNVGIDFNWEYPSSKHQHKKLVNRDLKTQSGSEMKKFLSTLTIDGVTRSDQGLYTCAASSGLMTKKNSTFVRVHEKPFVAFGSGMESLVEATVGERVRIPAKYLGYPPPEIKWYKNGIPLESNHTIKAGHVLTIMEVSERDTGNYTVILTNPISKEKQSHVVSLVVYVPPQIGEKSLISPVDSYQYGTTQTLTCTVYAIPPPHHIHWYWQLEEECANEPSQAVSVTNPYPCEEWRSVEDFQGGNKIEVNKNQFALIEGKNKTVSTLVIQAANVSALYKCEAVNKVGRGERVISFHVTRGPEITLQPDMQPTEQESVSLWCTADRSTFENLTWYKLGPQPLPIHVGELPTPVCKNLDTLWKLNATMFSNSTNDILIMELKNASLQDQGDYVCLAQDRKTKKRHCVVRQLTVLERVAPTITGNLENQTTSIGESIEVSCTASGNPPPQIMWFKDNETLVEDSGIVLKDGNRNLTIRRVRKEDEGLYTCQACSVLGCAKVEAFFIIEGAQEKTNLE

B1: hVEGF-Csf C137A, from transfected 293T cell medium (ligand, human, UniProt P49767 112-227, looked up)
chain: AHYNTEILKSIDNEWRKTQCMPREVAIDVGKEFGVATNTFFKPPCVSVYRCGGCCNSEGLQCMNTSTSYLSKTLFEITVPLSQGPKPVTISFANHTSCRCMSKLDVYRQVHSIIRR
With B1, the “stoichiometry N” value in series [1] was 2.

B2: purified human VEGF-Csf (ligand, UniProt P49767 112-227, looked up)
chain: B1 chain with A26C
Consider B2, for which the Kd in series [2] came to 310 ± 50 nM. Further, the EC50 with VEGFR-2-Ig is 2.6 ± 0.3 nM; in the series with VEGFR-3-Ig, 2.2 ± 0.6 nM.

B3: purified hVEGF-Csf C137A (ligand, human, UniProt P49767 112-227, looked up)
chain: B1 chain
For the molecule B3, the Kd in series [2] amounted to 280 ± 30 nM. For the same molecule, the EC50 with VEGFR-2-Ig worked out at 2.7 ± 0.6 nM; with VEGFR-3-Ig, 1.3 ± 0.3 nM. Besides, the “stoichiometry N” value in series [3] came to 2.
